Laboratory results as given in article PMC8233224, “Crystal structure of a homotrimeric verrucomicrobial exo-β-1,4-mannosidase active in the hindgut of the wood-feeding termite Reticulitermes flavipes” (Journal of Structural Biology: X, 2021).
“And” between values parts separate entries of the source, which are not always exact repeats. Equal entries are not always repeated.

Key:
[1] = tested on: T1, O=[N+]([O-])c1ccc(O[C@@H]2O[C@H](CO)[C@@H](O)[C@H](O)[C@@H]2O)cc1; assay: purified protein; format: biochemical, Opitutaceae bacterium; conditions: 50 mM sodium phosphate pH 6.0, 40 °C, 10 min, apparent
T1 construct: full length, 594 residues, no secretion signal; C-terminal non-cleavable His6 tag (pNIC-CH2), E. coli BL21(DE3) T1R; synthetic gene; ESI-MS 66824 g/mol; homotrimer ~200 kDa; N-terminus MTIDSSGY from primer

[2] = target: exo-β-1,4-mannosidase from Opitutaceae bacterium strain TAV5 (Op5Man5) (Opitutaceae bacterium strain TAV5); assay: SEC; Superdex 200 10/300 GL, 20 mM Tris-HCl pH 8.0 and 8.5 with 300 mM NaCl, 4 °C, standard curve of reference proteins
[3] = target: exo-β-1,4-mannosidase from Opitutaceae bacterium strain TAV5 (Op5Man5) (Opitutaceae bacterium strain TAV5); assay: SEC; Superdex 200 10/300 GL, 20 mM HEPES pH 7.5 with 300 mM NaCl, 4 °C, standard curve of reference proteins
[4] = target: exo-β-1,4-mannosidase from Opitutaceae bacterium strain TAV5 (Op5Man5) (Opitutaceae bacterium strain TAV5); assay: cryo-EM structure; single particle cryo-EM at pH 7.5 of pooled SEC fractions with the trimeric species, 0.12 mg/ml; 3.7 Å map
[5] = target: exo-β-1,4-mannosidase from Opitutaceae bacterium strain TAV5 (Op5Man5) (Opitutaceae bacterium strain TAV5); assay: SEC; Superdex 200 10/300 GL, 20 mM buffer with 300 mM NaCl, pH 5.5-6.5 (sodium acetate pH 5.5; MES pH 6.0 and 6.5), 4 °C, standard curve of reference proteins
[6] = target: exo-β-1,4-mannosidase from Opitutaceae bacterium strain TAV5 (Op5Man5) (Opitutaceae bacterium strain TAV5); assay: crystal structure; crystals from 0.1 M phosphorus citrate pH 4.2, 30% ethanol, 5% PEG 1000; space group P212121; 2.2 Å
[7] = target: exo-β-1,4-mannosidase from Opitutaceae bacterium strain TAV5 (Op5Man5) (Opitutaceae bacterium strain TAV5); assay: cross-linking; glutaraldehyde 0.4% w/v, protein 0.2 mg/ml, 37 °C, 0 to 60 min, SDS-PAGE (15%)

| Substance | Km [1] [µM] | kcat [1] [s⁻¹] | kcat/Km [1] [M⁻¹ s⁻¹] | stoichiometry N [2] | stoichiometry N [3] | stoichiometry N [4] | stoichiometry N [5] | stoichiometry N [6] | stoichiometry N [7] |
| --- | --- | --- | --- | --- | --- | --- | --- | --- | --- |
| Op5Man5 (Opitutaceae bacterium) | 1000 ± 130 | 239 ± 7.7 | 239000 ± 7700 |  |  |  |  |  |  |
| exo-β-1,4-mannosidase from Opitutaceae bacterium strain TAV5 (Op5Man5) (enzyme) |  |  |  | 3 | 3 and 6 | 3 | 3 | 3 | 3 and 6 |
